Tests used:
pT1989 ATR = biological target: T1, pT1989 ATR (Homo sapiens, UniProt Q13535); assay: Western blot of cell lysates probed with anti-ATR-pT1989 antibodies; assay type: binding
T1 construct: lysates from cells expressing ATR (HT-29, LoVo and DLD-1); endogenous in cells; host or cells: DLD-1 parental, DLD-1 Seckel (Horizon), HT-29, LoVo; with or without gemcitabine
Procedure: Cell growth was monitored 2-3 weeks after fusion. Hybridoma supernatants were screened by standard colorimetric ELISA against BSA-conjugated peptides as described in section C. The screening process consisted of a Primary screen on 40 plates (using bleed 2 of E5571 at 1:100 dilution as a Positive control) clones (44) with O.D. greater than 0.5 were considered putatively positive and were further expanded to 24-well plate. Confirmatory screen was performed and 6 clones were confirmed positive against phospho-specific peptides (Table 4). Additional screening was performed by ELISA using the same assay as for bleed screening (FIG. 5). Western blotting was done on selected clones #7, 27 and 35 for subcloning (FIG. 6). […]
Details for lysate preparation and Western blotting are given in Example I, section E. The antibody detected a single band at about 250 kDa consistent with the predicted molecular weight (MW) for ATR. The antibody also detected an increase in phospho-ATR (pT1989) upon gemcitabine (SIGMA) treatment which is known to increase ATR activity (Mol. Pharmacol. (2005), 68, 1636-1644). […]
Cells were treated for 4 hours with either vehicle (DMSO, 0.01%), 150 nM Gemcitabine (Sigma), 1 uM ATR inhibitor VE-821 or combination of drugs. The antibody detected a single band at about 250 kDa consistent with the predicted MW for ATR. […]

[1] = tested on: non-phospho peptide-BSA conjugates; assay: Direct ELISA against non-phospho peptide-BSA conjugates; assay type: binding, human
Procedure: (§1) The titer results from the pair of rabbits for each peptide antigen were determined in a colorimetric ELISA against BSA-conjugated peptides. Plates were coated with 50ng/well peptide-BSA conjugate in bicarbonate buffer pH 9.6 and incubated at 4° C. overnight, then and blocked with 1% BSA in TBS. Diluted (1:250-1:256,000) rabbit anti-sera (50 ul/well) were added and incubated at room temperature. Plates were washed with Tris-buffered saline with 0.05% Tween (TBST). Anti-rabbit secondary conjugated to alkaline phosphatase was used for detection with p-nitrophenyl phosphate (PNPP) substrate. Plates were read at 405 nm with a plate reader.

[2] = biological target: T2, pT1989ATR foci in cell nuclei (Homo sapiens, UniProt Q13535); assay: Immunofluorescence assay (IFA) on FFPE cells, antibody performance; assay type: binding
T2 construct: lysates from cells expressing ATR (HT-29, LoVo and DLD-1); endogenous in cells; host or cells: DLD-1 parental, DLD-1 Seckel (Horizon), HT-29, LoVo; with or without gemcitabine
Procedure: Subclones were screened by several assays. Screening was performed by enzyme-linked immunosorbant assay (ELISA) and Western blot for subclones of clones #7, 27 and 35 for subcloning. Subclones of clone #7 were then tested in an immunofluroescent (IFA) assay. Clone #7 was then tested in IFA assay. Formalin fixed paraffin embedded (FFPE) blocks were prepared from DLD-1 cells and DLD-1 Seckel cells treated with and without gemcitabine treatment (100 nM for 4 h). Slides were stained using neat hybridomas supernatants and imaged at 20×.
Formalin fixed paraffin embedded (FFPE) pellets were generated using cells expressing WT ATR (HT29, DLD-1 Parental) or mutated ATR (DLD-1 Seckel (Horizon)), with and without gemcitabine (SIGMA) treatment to induce ATR phosphorylation at pT1989 (Mol. Pharmacol. 2005, 68, 1636-1644). Cells were harvested by trypsinization, transferred into a sterile 50 ml conical centrifuge tubes with media containing 10% serum and pelleted at 1000×g for 5 minutes. Medium was replaced with fresh serum containing medium and centrifuged again at 1000×g, 5 minutes. All but 1 ml (approximately) of medium was removed and the pellet was re-suspended by flicking the tube. Suspended cells were transferred using a 2 ml pipette into a clean 1.5 ml conical Eppendorf tube. Cells were pelleted for 30 seconds at 8,000 rpm in an Eppendorf micro centrifuge. […]

[3] = tested on: ATR pT1989 phospho-peptides conjugated to BSA; assay: ELISA against phospho-peptide-BSA conjugates (bleed, hybridoma and clone screening); assay type: binding, human
Procedure: as §1
Independent screening of blood was conducted. Flat bottom, black, high binding 360 μL plates with clear bottom (VWR catalog #29444-037) were coated with 100 ng/well peptide-BSA conjugate in bicarbonate buffer pH 9.6 (Sigma, catalog # C3041-100CAP) and incubated at 4° C. overnight, then and blocked with ODYSSEY® blocking buffer (LiCor, catalog #927-40010). Diluted (1:250-1:1,000,000) rabbit anti-sera (100 ul/well) were added and incubated at 24 C. Plates were washed with phosphate-buffered saline with 0.05% tween-20 (PBS-T). […] Plates were read at 700 nm with a Licor ODYSSEY® scanner. Images were quantified using Licor ODYSSEY® application software v3.0 (FIGS. 3 and 4).
Cell growth was monitored 2-3 weeks after fusion. […]

T1 sequence (Q13535 whole entry): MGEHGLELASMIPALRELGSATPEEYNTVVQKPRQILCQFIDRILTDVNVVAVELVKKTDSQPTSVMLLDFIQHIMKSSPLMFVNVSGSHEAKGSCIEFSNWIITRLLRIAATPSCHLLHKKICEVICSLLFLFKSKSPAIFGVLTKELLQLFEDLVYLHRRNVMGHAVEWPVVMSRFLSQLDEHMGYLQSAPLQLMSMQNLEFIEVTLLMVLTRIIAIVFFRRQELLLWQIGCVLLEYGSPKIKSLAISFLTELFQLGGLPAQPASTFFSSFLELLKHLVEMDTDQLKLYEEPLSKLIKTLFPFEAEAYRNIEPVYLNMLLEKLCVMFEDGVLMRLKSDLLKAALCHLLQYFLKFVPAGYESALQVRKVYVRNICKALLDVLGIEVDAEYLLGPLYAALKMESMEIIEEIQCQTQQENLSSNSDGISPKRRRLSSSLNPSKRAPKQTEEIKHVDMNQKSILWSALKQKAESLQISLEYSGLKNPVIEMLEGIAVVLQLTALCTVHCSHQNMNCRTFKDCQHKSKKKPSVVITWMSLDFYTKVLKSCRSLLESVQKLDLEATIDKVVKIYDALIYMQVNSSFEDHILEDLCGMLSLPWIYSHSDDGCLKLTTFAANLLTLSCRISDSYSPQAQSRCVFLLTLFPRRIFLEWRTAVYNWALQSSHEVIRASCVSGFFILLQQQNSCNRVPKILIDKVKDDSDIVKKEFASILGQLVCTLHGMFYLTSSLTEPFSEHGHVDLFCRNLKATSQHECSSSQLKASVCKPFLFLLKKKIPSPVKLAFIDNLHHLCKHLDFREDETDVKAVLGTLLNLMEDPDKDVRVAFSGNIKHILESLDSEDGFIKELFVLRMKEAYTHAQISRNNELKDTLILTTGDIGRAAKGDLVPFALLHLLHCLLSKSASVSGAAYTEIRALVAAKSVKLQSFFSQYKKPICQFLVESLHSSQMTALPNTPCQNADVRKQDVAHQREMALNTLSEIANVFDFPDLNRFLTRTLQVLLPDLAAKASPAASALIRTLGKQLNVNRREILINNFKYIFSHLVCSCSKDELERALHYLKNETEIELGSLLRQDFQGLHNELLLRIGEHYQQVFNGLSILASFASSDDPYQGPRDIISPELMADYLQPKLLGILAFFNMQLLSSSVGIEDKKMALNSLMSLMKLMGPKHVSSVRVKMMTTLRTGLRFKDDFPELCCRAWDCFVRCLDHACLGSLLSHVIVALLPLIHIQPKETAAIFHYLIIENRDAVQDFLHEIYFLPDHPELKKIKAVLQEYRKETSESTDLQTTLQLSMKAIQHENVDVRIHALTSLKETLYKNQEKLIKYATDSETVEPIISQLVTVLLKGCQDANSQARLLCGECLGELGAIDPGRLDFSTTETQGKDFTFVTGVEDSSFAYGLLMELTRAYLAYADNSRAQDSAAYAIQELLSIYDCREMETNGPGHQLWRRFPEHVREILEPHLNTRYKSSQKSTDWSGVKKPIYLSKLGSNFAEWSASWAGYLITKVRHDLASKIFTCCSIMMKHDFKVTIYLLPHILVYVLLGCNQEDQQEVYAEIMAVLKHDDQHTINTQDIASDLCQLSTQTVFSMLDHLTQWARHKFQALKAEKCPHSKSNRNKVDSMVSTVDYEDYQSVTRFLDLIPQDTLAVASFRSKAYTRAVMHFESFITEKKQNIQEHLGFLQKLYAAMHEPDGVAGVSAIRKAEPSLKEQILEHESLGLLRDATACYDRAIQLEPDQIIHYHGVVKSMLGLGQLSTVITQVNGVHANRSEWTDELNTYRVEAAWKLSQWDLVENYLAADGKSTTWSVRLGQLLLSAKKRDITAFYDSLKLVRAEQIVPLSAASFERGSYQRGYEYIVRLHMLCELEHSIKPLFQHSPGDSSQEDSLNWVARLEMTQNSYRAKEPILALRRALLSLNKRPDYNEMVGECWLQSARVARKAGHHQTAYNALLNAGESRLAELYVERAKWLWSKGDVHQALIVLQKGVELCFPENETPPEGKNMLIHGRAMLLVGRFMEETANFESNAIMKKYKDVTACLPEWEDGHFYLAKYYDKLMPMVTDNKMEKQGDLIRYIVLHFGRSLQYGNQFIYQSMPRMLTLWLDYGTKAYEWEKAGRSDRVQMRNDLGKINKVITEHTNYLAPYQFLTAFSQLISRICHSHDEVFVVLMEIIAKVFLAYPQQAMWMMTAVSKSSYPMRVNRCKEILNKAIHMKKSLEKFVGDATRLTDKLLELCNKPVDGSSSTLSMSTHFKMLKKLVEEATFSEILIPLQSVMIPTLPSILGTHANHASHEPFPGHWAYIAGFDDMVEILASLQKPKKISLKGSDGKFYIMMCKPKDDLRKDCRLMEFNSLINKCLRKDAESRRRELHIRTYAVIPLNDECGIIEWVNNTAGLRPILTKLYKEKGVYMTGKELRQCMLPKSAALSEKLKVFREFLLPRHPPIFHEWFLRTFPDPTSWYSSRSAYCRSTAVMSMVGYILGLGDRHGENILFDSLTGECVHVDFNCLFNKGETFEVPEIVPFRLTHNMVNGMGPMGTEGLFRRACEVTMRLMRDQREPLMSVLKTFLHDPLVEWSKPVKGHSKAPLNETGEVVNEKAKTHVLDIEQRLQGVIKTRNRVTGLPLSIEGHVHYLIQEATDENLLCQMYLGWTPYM
T2 sequence (Q13535 whole entry): as above

B1: Clone 7A7: subclone of hybridoma 7; rabbit monoclonal antibody that specifically binds pT1989 ATR (antibody)
heavy: QSVEESGGRLVAPGTPLTLTCTVSGIDLMYNAMNWVRQAPGKGLEFIGMIGSGGNTVYASWAKGRFTISKTSTTVGLKMTSLTQEDTATYFCAREGSGGSMDFWGPGTLVTVSSGQPKAPSVFPLAPCCGDTPSSTVTLGCLVKGYLPEPVTVTWNSGTLTNGVRTFPSVRQSSGLYSLSSVVSVTSSSQPVTCNVAHPATNTKVDKTVAPSTCSKPTCPPPELLGGPSVFIFPPKPKDTLMISRTPEVTCVVVDVSQDDPEVQFTWYINNEQVRTARPPLREQQFNSTIRVVSTLPIAHQDWLRGKEFKCKVHNKALPAPIEKTISKARGQPLEPKVYTMGPPREELSSRSVSLTCMINGFYPSDISVEWEKNGKAEDNYKTTPAVLDSDGSYFLYSKLSVPTSEWQRGDVFTCSVMHEALHNHYTQKSISRSPGK
light: ALVMTQSPSSVSAAVGGTVTITCQASQSLYNNNYLAWFQQKPGQRPKLLIYKASTLASGVPSRFKGSGSGTQFTLTISDLECEDAATYYCLGEYKDNVDDGNAFGGGTEVVVEGDPVAPTVLIFPPAADQVATGTVTIVCVANKYFPDVTVTWEVDGTTQTTGIENSKTPQNSADCTYNLSSTLTLTSTQYNSHKEYTCKVTQGTTSVVQSFNRGDC
Question: With B1 as the molecule, how does the “specificity and sensitivity in Western blot” value (pT1989 ATR) read?
Answer: specific for pT1989 ATR

Question: And the “detection of pATR in Western blot” value (pT1989 ATR; antibody dilution 1:50, DLD1 lysates)?
Answer: detected pATR specifically

Question: What about the “cross-reactivity with non-phospho peptide-BSA conjugates” value [1] of the same molecule?
Answer: did not cross-react

Question: And the “suitability for pharmacodynamic IFA assay applications” value [2]?
Answer: successfully used

Question: What about the “specificity, titers for BSA conjugated phosphorylated and non-phosphorylated peptides” value ([3]; FIG. 5C) of the same molecule?
Answer: specific for the phosphorylated polypeptides

Question: What about the “binding to phosphopeptide-BSA conjugates” value ([3]; peptide conjugated at C term or N-term to BSA) of the same molecule?
Answer: bound the phosphopeptide

Source: US9644037B2, “Antibodies that specifically bind ataxia telangiectasia-mutated and RAD3-related kinase phosphorylated at position 1989 and their use” (THE UNITED STATES OF AMERICA, AS REPRESENTED BY THE …, priority 2013, dated 2017)
